What was measured:
[1] = target: T1, GST huTnC fn5 mu A124 BC hu fn6 B (human fn5 and fn6, murine A124 BC); assay: SPR ProteOn XPR36, biotinylated antigen captured on NLC chip, purified Fab as analyte, 1:1 Langmuir
T1 chain: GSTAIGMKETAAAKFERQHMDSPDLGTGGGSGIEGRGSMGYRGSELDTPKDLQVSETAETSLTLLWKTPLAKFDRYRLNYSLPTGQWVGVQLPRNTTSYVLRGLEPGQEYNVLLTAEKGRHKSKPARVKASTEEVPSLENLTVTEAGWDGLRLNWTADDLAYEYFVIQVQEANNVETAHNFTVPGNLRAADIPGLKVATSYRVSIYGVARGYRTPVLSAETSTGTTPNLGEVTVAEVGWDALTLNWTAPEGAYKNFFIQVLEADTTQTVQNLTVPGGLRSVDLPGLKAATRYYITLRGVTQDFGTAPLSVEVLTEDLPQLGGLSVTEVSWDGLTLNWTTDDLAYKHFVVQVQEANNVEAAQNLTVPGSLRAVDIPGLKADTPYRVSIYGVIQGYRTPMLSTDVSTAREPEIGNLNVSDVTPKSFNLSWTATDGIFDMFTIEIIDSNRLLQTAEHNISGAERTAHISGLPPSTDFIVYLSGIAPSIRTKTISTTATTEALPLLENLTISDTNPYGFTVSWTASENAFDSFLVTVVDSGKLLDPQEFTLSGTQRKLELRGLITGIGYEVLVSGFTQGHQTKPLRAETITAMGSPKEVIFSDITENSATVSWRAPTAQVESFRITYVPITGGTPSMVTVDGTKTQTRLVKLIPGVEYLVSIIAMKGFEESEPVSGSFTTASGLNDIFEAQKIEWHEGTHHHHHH
Method: (§1) Immobilization of antigens (ligand): Recombinant antigens were diluted with PBST (10 mM phosphate, 150 mM sodium chloride pH 7.4, 0.005% Tween 20) to 10 μg/ml, then injected at 30 μl/minute in vertical orientation. Injection of analytes: For ‘one-shot kinetics’ measurements, injection direction was changed to horizontal orientation, two-fold dilution series of purified Fab were injected simultaneously along separate channels 1-5, with association times of 200 s, and dissociation times of 240 s, respectively. Buffer (PBST) was injected along the sixth channel to provide an “in-line” blank for referencing. Association rate constants (kₒₙ) and dissociation rate constants (koff) were calculated using a simple one-to-one Langmuir binding model in ProteOn Manager v3.1 software by simultaneously fitting the association and dissociation sensorgrams. The equilibrium dissociation constant (KD) was calculated as the ratio koff/kₒₙ.

[2] = target: T2, GST huTnC fn5 A1234 BC fn6 B (human, UniProt P24821 984-1798, biotinylated at the C-terminal Avi-tag); assay: as above
T2 construct: also called Human GST-fused TnC fn5 A1234 BC fn6
T2 sequence: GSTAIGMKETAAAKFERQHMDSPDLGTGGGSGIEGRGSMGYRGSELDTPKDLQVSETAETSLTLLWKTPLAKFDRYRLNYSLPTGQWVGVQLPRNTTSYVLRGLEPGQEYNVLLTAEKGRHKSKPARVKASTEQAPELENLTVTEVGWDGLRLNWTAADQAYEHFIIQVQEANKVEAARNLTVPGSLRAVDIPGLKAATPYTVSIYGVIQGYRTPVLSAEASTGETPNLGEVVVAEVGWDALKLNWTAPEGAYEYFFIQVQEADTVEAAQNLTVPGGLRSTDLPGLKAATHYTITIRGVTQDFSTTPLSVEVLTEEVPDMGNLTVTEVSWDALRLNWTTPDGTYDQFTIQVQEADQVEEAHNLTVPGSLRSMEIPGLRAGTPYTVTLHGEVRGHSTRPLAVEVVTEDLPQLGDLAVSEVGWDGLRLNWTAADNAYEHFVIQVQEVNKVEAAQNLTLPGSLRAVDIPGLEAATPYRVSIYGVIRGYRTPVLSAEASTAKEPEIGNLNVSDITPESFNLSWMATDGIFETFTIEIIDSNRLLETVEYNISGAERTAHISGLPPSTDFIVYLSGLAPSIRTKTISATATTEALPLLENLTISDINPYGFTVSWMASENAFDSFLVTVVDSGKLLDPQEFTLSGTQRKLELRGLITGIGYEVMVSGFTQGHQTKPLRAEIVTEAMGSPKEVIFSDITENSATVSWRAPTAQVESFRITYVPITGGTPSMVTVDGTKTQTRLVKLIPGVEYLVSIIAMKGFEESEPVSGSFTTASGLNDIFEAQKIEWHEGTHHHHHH
Method: as §1

GST TnC hu fn5 B-C fn6 B = target: T3, GST TnC hu fn5 B-C fn6 B (human, biotinylated at the C-terminal Avi-tag); assay: as above
T3 chain: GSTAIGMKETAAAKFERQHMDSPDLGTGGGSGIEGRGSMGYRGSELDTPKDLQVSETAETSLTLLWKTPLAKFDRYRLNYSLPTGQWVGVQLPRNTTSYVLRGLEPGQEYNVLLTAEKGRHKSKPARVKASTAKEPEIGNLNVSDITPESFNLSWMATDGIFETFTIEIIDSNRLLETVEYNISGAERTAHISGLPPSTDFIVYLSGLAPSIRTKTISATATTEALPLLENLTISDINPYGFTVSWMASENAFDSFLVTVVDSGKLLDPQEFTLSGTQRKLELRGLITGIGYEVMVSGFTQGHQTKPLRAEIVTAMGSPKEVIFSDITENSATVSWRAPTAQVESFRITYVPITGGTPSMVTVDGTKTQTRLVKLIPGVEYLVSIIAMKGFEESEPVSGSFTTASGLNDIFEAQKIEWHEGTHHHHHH
Method: as §1

human OX40 on cells = target: T4, human OX40 on cells (human, UniProt P43489 29-277); assay: flow cytometry on activated human PBMC, gated on CD4+ T cells; FITC anti-human IgG secondary; MFI baseline corrected
T4 construct: also called CD134; OX40+ Cells
T4 sequence: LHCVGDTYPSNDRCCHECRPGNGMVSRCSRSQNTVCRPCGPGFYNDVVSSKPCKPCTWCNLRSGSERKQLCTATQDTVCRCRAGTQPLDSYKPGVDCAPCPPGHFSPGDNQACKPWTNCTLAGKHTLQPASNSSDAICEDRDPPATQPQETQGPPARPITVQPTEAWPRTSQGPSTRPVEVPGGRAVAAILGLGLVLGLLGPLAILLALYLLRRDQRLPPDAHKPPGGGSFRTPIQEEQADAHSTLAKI
Method: For labeling, cells were harvested, washed with pre-warmed (37° C.) DPBS and adjusted to a cell density of 1×10⁷ cells/mL in DPBS. eFluor670 cell proliferation dye (eBioscience, Cat.-No. 65-0840-85) was added to the suspension of naïve human PBMC at a final concentration of […] and a final cell density of 0.5×10⁷ cells/mL in DPBS. Cells were then incubated for 10 min at room temperature in the dark. To stop the labeling reaction, 4 mL heat inactivated FBS was added and cells were washed three times with T cell medium. A 2:1 mixture of 1×10⁵ resting eFluor670 labeled human PBMC and 0.5×10⁵ unlabeled activated human PBMC were then added to each well of round-bottomed suspension cell 96-well plates (Greiner bio-one, cellstar, Cat. No. 650185).
Cells were stained for 120 minutes at 4° C. in the dark in 50 μL/well 4° C. FACS buffer containing different amounts of the indicated antigen binding molecules. After three washes with 4° C. FACS buffer, cells were stained for 45 minutes at 4° C. in the dark in 25 μL/well 4° C. FACS buffer containing a mixture of fluorescently labeled anti-human CD4 (clone RPA-T4, mouse IgG1 k, BioLegend, Cat.-No. 300532), anti-human CD8 (clone RPa-T8, mouse IgGlk, BioLegend, Cat.-No. 3010441) and Fluorescein isothiocyanate (FITC)-conjugated AffiniPure anti-human IgG Fcγ-fragment-specific goat IgG F(ab′)₂ fragment (Jackson ImmunoResearch, Cat.-No. 109-096-098). […]

human TnC on cells [3] = target: T5, human TnC on cells (human, UniProt P24821 23-2201); assay: flow cytometry on U87-MG cells
T5 construct: Endogenous on U87-MG cells (low or intermediate level) and stably transfected in CT26 cells (CT26huTnC, high level); also called cell surface human TnC; TnC on U87-MG cells
Method: Cells were then stained for 60 to 120 minutes at 4° C. in the dark in 50 4/well 4° C.
For discrimination of live and dead cells two methods were used. […] Alternatively, cells were washed once with DPBS and were incubated for 15 minutes at dark/4° C. at a cell concentration of 1×10⁶ cell/mL in DPBS containing Zombie Aqua™ Viability Dye [1:800 dilution]. Cells were subsequently washed once with DPBS to remove excess dye before primary antigen binding molecules were added to the cells and the cells were incubated as described above.

human TnC on cells [4] = target: T5, human TnC on cells; assay: flow cytometry on CT26huTnC cells
huTnC A1 B = target: T6, huTnC A1 B (human, biotinylated at the C-terminal Avi-tag); assay: SPR ProteOn XPR36, biotinylated antigen captured on NLC chip, purified Fab as analyte, 1:1 Langmuir
T6 chain: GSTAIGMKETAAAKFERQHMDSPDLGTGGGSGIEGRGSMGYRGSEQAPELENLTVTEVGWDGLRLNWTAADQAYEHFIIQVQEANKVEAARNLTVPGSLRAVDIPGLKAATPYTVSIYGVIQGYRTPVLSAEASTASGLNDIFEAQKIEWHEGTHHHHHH
Method: as §1

huTnC A4 B = target: T7, huTnC A4 B (human, biotinylated at the C-terminal Avi-tag); assay: as above
T7 chain: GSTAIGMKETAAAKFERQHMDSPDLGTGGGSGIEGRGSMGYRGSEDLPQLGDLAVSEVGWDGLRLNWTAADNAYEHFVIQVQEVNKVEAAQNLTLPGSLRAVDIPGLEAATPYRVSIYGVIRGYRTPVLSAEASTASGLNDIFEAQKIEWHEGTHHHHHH
Method: as §1

[5] = target: T8, GST huTnC fn5 A1234 fn6 B (human, biotinylated at the C-terminal Avi-tag); assay: as above
T8 chain: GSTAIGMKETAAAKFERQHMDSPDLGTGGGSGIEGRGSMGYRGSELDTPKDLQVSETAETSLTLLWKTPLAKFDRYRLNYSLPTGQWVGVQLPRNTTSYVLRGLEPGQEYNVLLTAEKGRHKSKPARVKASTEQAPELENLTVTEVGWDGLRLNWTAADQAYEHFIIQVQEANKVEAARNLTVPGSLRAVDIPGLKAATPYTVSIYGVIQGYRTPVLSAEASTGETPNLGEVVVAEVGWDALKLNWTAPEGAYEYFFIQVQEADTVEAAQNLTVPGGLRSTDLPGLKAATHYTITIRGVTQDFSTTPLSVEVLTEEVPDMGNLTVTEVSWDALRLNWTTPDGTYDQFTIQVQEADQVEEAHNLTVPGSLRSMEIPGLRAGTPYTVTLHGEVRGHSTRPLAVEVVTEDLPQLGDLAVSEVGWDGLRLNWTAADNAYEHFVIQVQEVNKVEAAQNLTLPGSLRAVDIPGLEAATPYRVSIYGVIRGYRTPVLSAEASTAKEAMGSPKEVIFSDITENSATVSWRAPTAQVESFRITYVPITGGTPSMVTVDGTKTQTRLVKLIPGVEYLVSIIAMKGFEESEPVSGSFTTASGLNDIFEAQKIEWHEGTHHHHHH
Method: as §1

T5 sequence (P24821 23-2201 limits assumed): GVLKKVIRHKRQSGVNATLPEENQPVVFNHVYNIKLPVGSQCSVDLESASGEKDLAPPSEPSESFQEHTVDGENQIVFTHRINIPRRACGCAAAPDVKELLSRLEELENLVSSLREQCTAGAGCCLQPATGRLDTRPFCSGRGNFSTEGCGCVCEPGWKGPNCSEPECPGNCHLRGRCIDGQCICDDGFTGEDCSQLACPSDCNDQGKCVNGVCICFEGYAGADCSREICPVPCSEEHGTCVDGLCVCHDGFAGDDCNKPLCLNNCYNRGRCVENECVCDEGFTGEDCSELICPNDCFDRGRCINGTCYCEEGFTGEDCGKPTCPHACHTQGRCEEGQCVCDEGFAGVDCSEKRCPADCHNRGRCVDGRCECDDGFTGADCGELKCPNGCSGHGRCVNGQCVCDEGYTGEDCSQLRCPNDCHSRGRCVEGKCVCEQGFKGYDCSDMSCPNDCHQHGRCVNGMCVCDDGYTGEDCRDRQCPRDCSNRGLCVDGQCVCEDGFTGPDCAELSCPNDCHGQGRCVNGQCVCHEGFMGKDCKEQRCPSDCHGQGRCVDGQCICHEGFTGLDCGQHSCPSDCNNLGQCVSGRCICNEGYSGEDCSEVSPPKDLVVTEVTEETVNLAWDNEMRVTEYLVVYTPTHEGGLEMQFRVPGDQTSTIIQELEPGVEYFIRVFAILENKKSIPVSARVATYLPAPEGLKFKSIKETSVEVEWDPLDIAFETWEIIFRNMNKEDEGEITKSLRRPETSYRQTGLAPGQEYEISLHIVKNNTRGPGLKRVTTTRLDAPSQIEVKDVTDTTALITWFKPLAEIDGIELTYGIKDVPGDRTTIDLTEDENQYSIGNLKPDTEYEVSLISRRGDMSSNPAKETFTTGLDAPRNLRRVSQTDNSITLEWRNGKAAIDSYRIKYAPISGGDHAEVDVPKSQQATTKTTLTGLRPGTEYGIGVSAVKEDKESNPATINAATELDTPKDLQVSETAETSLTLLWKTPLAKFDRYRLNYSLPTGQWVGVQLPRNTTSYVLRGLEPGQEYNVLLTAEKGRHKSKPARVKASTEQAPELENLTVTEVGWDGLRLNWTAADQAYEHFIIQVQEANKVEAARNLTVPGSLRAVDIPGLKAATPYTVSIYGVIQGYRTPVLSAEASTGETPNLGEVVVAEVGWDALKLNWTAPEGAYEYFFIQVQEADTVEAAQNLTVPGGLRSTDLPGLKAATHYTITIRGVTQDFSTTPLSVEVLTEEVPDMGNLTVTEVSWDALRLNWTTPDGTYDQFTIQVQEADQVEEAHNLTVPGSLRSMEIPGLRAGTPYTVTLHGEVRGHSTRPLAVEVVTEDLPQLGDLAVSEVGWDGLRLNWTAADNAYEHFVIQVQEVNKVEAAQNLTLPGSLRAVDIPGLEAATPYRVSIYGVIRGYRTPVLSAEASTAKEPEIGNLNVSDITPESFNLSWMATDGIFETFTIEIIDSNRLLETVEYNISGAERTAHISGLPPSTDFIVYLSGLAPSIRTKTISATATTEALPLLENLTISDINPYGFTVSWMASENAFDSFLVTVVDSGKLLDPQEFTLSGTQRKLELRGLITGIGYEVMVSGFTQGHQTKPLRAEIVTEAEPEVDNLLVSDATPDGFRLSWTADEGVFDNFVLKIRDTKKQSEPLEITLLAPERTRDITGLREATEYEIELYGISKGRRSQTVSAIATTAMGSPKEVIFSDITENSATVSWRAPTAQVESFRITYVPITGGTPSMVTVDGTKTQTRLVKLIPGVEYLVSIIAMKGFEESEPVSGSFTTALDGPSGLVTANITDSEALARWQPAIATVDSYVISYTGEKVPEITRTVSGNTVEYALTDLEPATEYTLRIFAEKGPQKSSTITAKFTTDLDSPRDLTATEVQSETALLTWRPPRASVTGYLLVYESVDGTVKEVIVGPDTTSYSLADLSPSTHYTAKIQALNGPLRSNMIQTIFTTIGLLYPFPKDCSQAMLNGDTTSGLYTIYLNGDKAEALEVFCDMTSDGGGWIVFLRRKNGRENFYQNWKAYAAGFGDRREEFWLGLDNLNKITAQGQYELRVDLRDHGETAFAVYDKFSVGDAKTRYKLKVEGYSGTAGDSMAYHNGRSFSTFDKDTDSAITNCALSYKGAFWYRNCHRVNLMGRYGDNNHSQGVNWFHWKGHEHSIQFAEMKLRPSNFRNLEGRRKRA

Row | Binder | Kd [1] [nM] | Kd [2] [nM] | Kd (GST TnC hu fn5 B-C fn6 B) [nM] | binding result (human OX40 on cells) | EC50 (human TnC on cells [3]) [nM] | EC50 (human TnC on cells [4]) [nM] | Kd (huTnC A1 B) [nM] | Kd (huTnC A4 B) [nM] | Kd [5] [nM]
1 | anti-TnC clone 11C7, purified Fab (Fab, V domains shown) VH: not shown VL: SSELTQDPAVSVALGQTVRVTCQGDSLRSYYASWYQQKPGQAPVLVIYGKNNRPSGIPDRFSGSSSGNTASLTITGAQAEDEADYYCNSINSTRNEVFGGGTKLTVL | 1.9 | 2.3 | 1 |  |  |  |  |  | 
2 | parental bivalent anti-TnC antibody clone18D4 (antibody, V domains shown, Human IgG1; also called αTnC (18D4); anti-TnC 18D4 IgG) VH: QVQLVQSGAEVKKPGSSVKVSCKASGGTFSSYAISWVRQAPGQGLEWMGGIIPIFGTANYAQKFQGRVTITADKSTSTAYMELSSLRSEDTAVYYCAKGNFYGGLDYWGQGTTVTVSS VL: DIQMTQSPSTLSASVGDRVTITCRASQSISSWLAWYQQKPGKAPKLLIYDASSLESGVPSRFSGSGSGTEFTLTISSLQPDDFATYYCQQNKKFPSGTFGQGTKVEIK |  |  |  | no binding (tested: 100 nM) | 8.21 | 2.69 |  |  | 
3 | anti-TnC clone 18D4, purified Fab (Fab, V domains shown) VH: QVQLVQSGAEVKKPGSSVKVSCKASGGTFSSYAISWVRQAPGQGLEWMGGIIPIFGTANYAQKFQGRVTITADKSTSTAYMELSSLRSEDTAVYYCAKGNFYGGLDYWGQGTTVTVSS VL: DIQMTQSPSTLSASVGDRVTITCRASQSISSWLAWYQQKPGKAPKLLIYDASSLESGVPSRFSGSGSGTEFTLTISSLQPDDFATYYCQQNKKFPSGTFGQGTKVEIK | 11.2 | 4 |  |  |  |  | 5.6 | 2 | 5
